Laboratory results from patent publication US20230303994.
Where a chain is given by its changes, count along the chain named. Names and notes keep the numbering of the source.

Experiments:
[1] = biological target: pre-pro-insulin glargine
[2] = biological target: pre-pro-human insulin
[3] = biological target: insulin glargine, P01308
Sequence of insulin glargine, P01308 (P01308 whole entry, looked up): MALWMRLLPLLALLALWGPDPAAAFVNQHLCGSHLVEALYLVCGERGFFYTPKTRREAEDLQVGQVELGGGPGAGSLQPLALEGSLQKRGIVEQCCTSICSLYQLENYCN

B1: porcine trypsin variant S172A (SEQ ID NO: 2) (protein)
chain: IVGGYTCAANSIPYQVSLNSGSHFCGGSLINSQWVVSAAHCYKSRIQVRLGEHNIDVLEGNEQFINAAKIITHPNFNGNTLDNDIMLIKLSSPATLNSRVATVSLPRSCAAAGTECLISGWGNTKSSGSSYPSLLQCLKAPVLSDSSCKSSYPGQITGNMICVGFLEGGKDACQGDSGGPVVCNGQLQGIVSWGYGCAQKNKPGVYTKVCNYVNWIQQTIAAN
Purity Insulin Glargine [1]: 53.6 area % | Yield [1]: 65% | desArg [1]: 19.1 area % | desThr [1]: 5.2 area % | Activity PPI cleavage [2]: yes | Selectivity [2]: 62.1% | exopeptidase activity [3]: the concentration of insulin glargine is decreased over time

B2: trypsin variant SEQ ID NO: 19 (protein)
chain: B1 chain with F24R, K125C, W193S
Purity Insulin Glargine [1]: 81 area % | Yield [1]: > 80% | desArg [1]: < 0.5 area % | desThr [1]: 3.3 area % | Activity PPI cleavage [2]: yes | Selectivity [2]: >90%

B3: trypsin variant SEQ ID NO: 24 (protein)
chain: B1 chain with F24R, K170Y, W193S
Purity Insulin Glargine [1]: 82.3 area % | Yield [1]: > 80% | desArg [1]: < 0.5 area % | desThr [1]: 2.8 area % | Activity PPI cleavage [2]: yes | Selectivity [2]: >90%

B4: trypsin variant SEQ ID NO: 111 (protein)
chain: B1 chain with F24R, S44P, D56H, G78P, R99H, R107T, K125S, K170A, W193S
Purity Insulin Glargine [1]: 85.9 area % | Yield [1]: > 90% | desArg [1]: 0.7 area % | desThr [1]: 2.6 area % | Activity PPI cleavage [2]: yes | Selectivity [2]: >80%

B5: trypsin variant SEQ ID NO: 108 (protein)
chain: B1 chain with F24R, S44P, G78P, R99A, R107T, K125C, Y131M, K170A, W193S
Purity Insulin Glargine [1]: 88.8 area % | Yield [1]: > 90% | desArg [1]: 0.8 area % | desThr [1]: 0.7 area % | Activity PPI cleavage [2]: yes | Selectivity [2]: >80%

B6: trypsin variant SEQ ID NO: 36 (protein)
chain: B1 chain with F24R, Y131M, W193S
Purity Insulin Glargine [1]: 87.6 area % | Yield [1]: > 90% | desArg [1]: < 0.5 area % | desThr [1]: 1.5 area % | Activity PPI cleavage [2]: yes | Selectivity [2]: >90%

B7: trypsin variant SEQ ID NO: 118 (protein)
chain: B1 chain with F24R, S44P, D56H, R99H, R107T, K125A, Y131M, K170A, W193S
Purity Insulin Glargine [1]: 87.6 area % | Yield [1]: > 90% | desArg [1]: 0.6 area % | desThr [1]: 1 area % | Activity PPI cleavage [2]: yes | Selectivity [2]: >90%

B8: trypsin variant SEQ ID NO: 14 (protein)
chain: B1 chain with F24R, R99H, W193S
Purity Insulin Glargine [1]: 84.5 area % | Yield [1]: > 90% | desArg [1]: < 0.5 area % | desThr [1]: 2.4 area % | Activity PPI cleavage [2]: yes | Selectivity [2]: >90%

B9: trypsin variant SEQ ID NO: 109 (protein)
chain: B1 chain with F24R, D56H, R99N, R107T, K125C, Y131M, K170A, W193S
Purity Insulin Glargine [1]: 85.9 area % | Yield [1]: > 80% | desArg [1]: 0.7 area % | desThr [1]: 0.5 area % | Activity PPI cleavage [2]: yes | Selectivity [2]: >90%

B10: trypsin variant SEQ ID NO: 18 (protein)
chain: B1 chain with F24R, K125S, W193S
Purity Insulin Glargine [1]: 82.6 area % | Yield [1]: > 80% | desArg [1]: < 0.5 area % | desThr [1]: 1.9 area % | Activity PPI cleavage [2]: yes | Selectivity [2]: >90%

B11: trypsin variant SEQ ID NO: 115 (protein)
chain: B1 chain with F24R, S44P, D56H, R99N, R107T, K125S, Y131M, W193S
Purity Insulin Glargine [1]: 83.5 area % | Yield [1]: > 90% | desArg [1]: 0.8 area % | desThr [1]: 0.6 area % | Activity PPI cleavage [2]: yes | Selectivity [2]: >90%

B12: trypsin variant SEQ ID NO: 25 (protein)
chain: B1 chain with F24R, K170A, W193S
Purity Insulin Glargine [1]: 80.4 area % | Yield [1]: > 80% | desArg [1]: < 0.5 area % | desThr [1]: 2.8 area % | Activity PPI cleavage [2]: yes | Selectivity [2]: >90%

B13: trypsin variant SEQ ID NO: 107 (protein)
chain: B1 chain with F24R, S44P, D56H, G78P, R99H, R107T, K125C, Y131M, K170A, W193S
Purity Insulin Glargine [1]: 88.1 area % | Yield [1]: > 90% | desArg [1]: 0.4 area % | desThr [1]: 1.3 area % | Activity PPI cleavage [2]: yes | Selectivity [2]: >90%

B14: trypsin variant SEQ ID NO: 4 (protein)
chain: B1 chain with F24R, R99A, W193S
Purity Insulin Glargine [1]: 86.4 area % | Yield [1]: > 90% | desArg [1]: < 0.5 area % | desThr [1]: 2.9 area % | Activity PPI cleavage [2]: yes | Selectivity [2]: >90%

B15: trypsin variant SEQ ID NO: 119 (protein)
chain: B1 chain with F24R, S44P, D56H, R99A, R107T, K125A, Y131M, W193S
Purity Insulin Glargine [1]: 85.2 area % | Yield [1]: > 90% | desArg [1]: 0.6 area % | desThr [1]: 1 area % | Activity PPI cleavage [2]: yes | Selectivity [2]: >90%

B16: trypsin variant SEQ ID NO: 113 (protein)
chain: B1 chain with F24R, S44P, D56H, R99A, R107T, K125A, K170A, W193S
Purity Insulin Glargine [1]: 86.1 area % | Yield [1]: > 90% | desArg [1]: 0.5 area % | desThr [1]: 1.7 area % | Activity PPI cleavage [2]: yes | Selectivity [2]: >90%

B17: trypsin variant SEQ ID NO: 106 (protein)
chain: B1 chain with F24R, D56H, G78P, R99A, R107T, K125C, Y131M, K170A, W193S
Purity Insulin Glargine [1]: 86.8 area % | Yield [1]: > 90% | desArg [1]: 0.7 area % | desThr [1]: 1 area % | Activity PPI cleavage [2]: yes | Selectivity [2]: >90%

B18: trypsin variant SEQ ID NO: 116 (protein)
chain: B1 chain with F24R, S44P, D56H, R99N, R107T, K125S, Y131M, K170A, W193S
Purity Insulin Glargine [1]: 82.7 area % | Yield [1]: > 90% | desArg [1]: 0.5 area % | desThr [1]: 0.6 area % | Activity PPI cleavage [2]: yes | Selectivity [2]: >90%

B19: trypsin variant SEQ ID NO: 117 (protein)
chain: B1 chain with F24R, S44P, D56H, R99N, R107T, K125A, Y131M, W193S
Purity Insulin Glargine [1]: 85 area % | Yield [1]: > 90% | desArg [1]: 0.6 area % | desThr [1]: 0.8 area % | Activity PPI cleavage [2]: yes | Selectivity [2]: >90%

B20: trypsin variant SEQ ID NO: 104 (protein)
chain: B1 chain with F24R, D56H, G78P, R99N, R107T, K125C, Y131M, K170A, W193S
Purity Insulin Glargine [1]: 89.3 area % | Yield [1]: > 90% | desArg [1]: 1.1 area % | desThr [1]: 1 area % | Activity PPI cleavage [2]: yes | Selectivity [2]: >90%

B21: trypsin variant SEQ ID NO: 110 (protein)
chain: B1 chain with F24R, D56H, G78P, R99H, K125C, Y131M, K170A, W193S
Purity Insulin Glargine [1]: 90.6 area % | Yield [1]: > 90% | desArg [1]: 0.9 area % | desThr [1]: 0.6 area % | Activity PPI cleavage [2]: yes | Selectivity [2]: >90%

B22: trypsin variant SEQ ID NO: 41 (protein)
chain: B1 chain with F24R, Y131H, W193S
Purity Insulin Glargine [1]: 82.8 area % | Yield [1]: > 90% | desArg [1]: < 0.5 area % | desThr [1]: 1.9 area % | Activity PPI cleavage [2]: yes | Selectivity [2]: >90%

B23: porcine trypsin variant no. 105 (SEQ ID NO: 105) (protein)
chain: B1 chain with F24R, D56H, G78P, R99N, R107T, K125A, K170A, W193S
Purity Insulin Glargine [1]: 88.9 area % | Yield [1]: > 90% | desArg [1]: 1 area % | desThr [1]: 0.9 area % | Activity PPI cleavage [2]: yes | Selectivity [2]: >90%

B24: trypsin variant SEQ ID NO: 103 (protein)
chain: IVGGYTCAANSIPYQVSLNSGSHRCGGSLINSQWVVSAAHCYKPRIQVRLGEHNIHVLEGNEQFINAAKIITHPNFNPNTLDNDIMLIKLSSPATLNSHVATVSLPTSCAAAGTECLISGWGNTSSSGSSMPSLLQCLKAPVLSDSSCKSSYPGQITGNMICVGFLEGGADSCQGDSGGPVVCNGQLQGIVSSGYGCAQKNKPGVYTKVCNYVNWIQQTIAAN
Purity Insulin Glargine [1]: 90.7 area % | Yield [1]: > 90% | desArg [1]: 0.9 area % | desThr [1]: 1.4 area % | Activity PPI cleavage [2]: yes | Selectivity [2]: >90%
